Laboratory results published in the RNAGym collection of RNA variant scans (doi:10.1073/pnas.2313332121).
This sample holds only a part of the variants without activity.

B1: TPR 5TU (parent)
chain: GGAUCUUCUCGAUCUAACAAAAAAGACAAAUCUGCCACAAAGCUUGAGAGCAUCUUCGGAUGCAGAGGCGGCAGCCUUCGGUGGCGCGAUAGCGCCAACGUUCUCAACUAUGACACGCAAAACGCGUGCUCCGUUGAAUGGAGUUUAUCAUG

Variants of: B1
Assay: polymerase ribozyme fitness, log enrichment relative to wild type (log ratio); higher = more active; in vitro selection for triplet polymerase activity
Procedure, shortened: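 Each subunit of a heterodimeric triplet polymerase ribozyme was mutagenized into a library by PCR, transcribed, and subjected to one round of in vitro selection, run in triplicate. Libraries were annealed with a biotinylated primer, the partner subunit and triplets, incubated frozen at −7 °C, and extended constructs were gel-excised, captured on streptavidin beads and recovered by RT-PCR. Input and output libraries were sequenced on Illumina, keeping genotypes with ≥10 input reads and ≥1 read per output. Fitness is log base 2 of genotype enrichment divided by wild-type enrichment, from inverse-variance-weighted replicate averages.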

Variant	polymerase ribozyme fitness (log ratio)
A47C U55A C87G A91G A150G	≤ -4.2
A49C A52U A60G G94A A97G	-3.63
U45G G94A A137G	-2.23
G48A A52G U55G G70C C96A	≤ -4.2
U44A U55A C69G G86U G141A	-4.2
U45G C79G G83U C85G U102C	≤ -4.2
U45A A60G	-2.47
U45A C93U	-3.15
A47U C87U A91U C95U C114G A120C	≤ -4.2
A47G U55A C79G C93U	≤ -4.2
A47G G133C C149G	-3.65
G46C C54A U61A C63U G70A G84A C93U G100A C116G	≤ -4.2
U45A G62C A107U	≤ -4.2
U44A G68U G92U A98G C99G	≤ -4.2
G48U G86U	-1.58
G48A A60G G83U G126U U134C	-3.58
G48C A120C	-0.573
G48A C79A C85G A110U G124A	≤ -4.2
G46U U77G C87U A89U C93A G124U	≤ -4.2
G46A A47C U53A C57U A107U G117A	≤ -4.2
A47G G62U U145C U151A	≤ -4.2
U45G C87U U111G A147C	≤ -4.2
U44A G58C G92C G141U C149A	≤ -4.2
G48U C85U	-0.485

Variant	polymerase ribozyme fitness (log ratio)
A47C U56C G68A C125U	-4.09
A47G U82G C95G	-3.89
A47C C51G C87U A89U A107G	≤ -4.2
G48C C85A C118A	-1.39
U44G A49U G84A U90G C131U U135G G136A	≤ -4.2
G48A G67U G84U C105G	≤ -4.2
G48A C57G G83C C87G U102A G112C A119C	≤ -4.2
A47C C57A	-0.176
U44G G81C C96U C108G	≤ -4.2
U45A G48U G50A G59C G68U C96U C131A A137C G152A	≤ -4.2
U44C G86U C103G G140A U148A	≤ -4.2
G46C A49U U56A G86A C87A C103G A147U	≤ -4.2
U44G A49C C93U C125U A150U	≤ -4.2
G48A A52G C116U	-0.319
G48A G62A A73U A91G C95G U139A A142C	≤ -4.2
A49C A64U C75U C76U U135G	≤ -4.2
A47G G50A A52U C63A A142C	≤ -4.2
G48U A120U	-0.0736
A47C A73U G124C	-3.78
A47U U77C	-4.09
U45A G58A G83A U148C	≤ -4.2
G48C A73U U101C U104A A115G G124U	≤ -4.2
G46C A64G A91C	≤ -4.2
A47U G83U A122U	-0.574

Variant	polymerase ribozyme fitness (log ratio)
U45A A64U G67C G74A G83A A120G	≤ -4.2
U45A G50A U135G	≤ -4.2
A47U C57U	0.131
A47G C99A A142U	-2.48
A47U C96A G126A C129A A137U	≤ -4.2
A49C C51U C95U C96A G112A G126A	≤ -4.2
G48C C118U	-0.625
G46A C54A G94C G117A A122U G124A	-3.11
U45A C76U C125G	-3.81
G48C A91U G143C	≤ -4.2
G46A G83A	-0.911
U45G A137C	-4.14
A47U C114U	-1.72
A47U U55G G94A	-0.633
G48U U146G	-1.42
A47C U55A C57A G84U C96U C99U G136A G143C	≤ -4.2
U45A A47U U77G C114G A122U	≤ -4.2
A47C G92A A107G	≤ -4.2
A47U G70U A122G	-3.45
U44A G117A U135G	≤ -4.2
U44A U134A	≤ -4.2
U44A G84A C85G C95G C99U	-3.94
A47C C85U C118U U130A	-3.62
G48A C85G C125G	-4.1

Variant	polymerase ribozyme fitness (log ratio)
G48U A49C G68U G74A C76A G88U C116G	≤ -4.2
U45C A52G C57A G92C	-2.64
G48C U55A C93G	-3.87
G48C G83U	-1.41
U44C A89U C103A A120U	≤ -4.2
A47G C87A U90G A98G C99A G117C C149A	≤ -4.2
U45A G65A U82A A106U	-0.414
A47C G141C U148G	≤ -4.2
U45G U53A C85U	-1.63
U44A G92A C93A G141C	≤ -4.2
G46A G50A	-0.957
G48C C96G C103G C105G A106G	-3.96
U45G C114U A119U	-2.4
G46C U61A C63U U82A A122G	≤ -4.2
A47C C72G G83U A142G	≤ -4.2
U44A G62A G84A U134A	≤ -4.2
U44G G70C G140U	≤ -4.2
A47G G50C G71C G94A U134C	≤ -4.2
U45A U56G A66C G67C G71U C85G G88U A89G C99U A110G C132G	≤ -4.2
G46C C93U	-2.47
G46A U82C C95U C125G	-1.73
G46C G74C C87A	≤ -4.2
G46C G50C G59U C118U G126C	≤ -4.2
U45A G83C	-3.51

Variant	polymerase ribozyme fitness (log ratio)
A47U C54U U56A G84C C99A C108U C114U G126U	≤ -4.2
A49C C57U G74U U90A C93G C95U C103G A138C	≤ -4.2
G48C G68C G70A C129G	≤ -4.2
A47C A52U U82A A120U	-1.94
U45C G84A	-1.08
U45A C85G	-3.95
U45A G94A	-2.81
G48U U56A G67A A73C G86U A107G	≤ -4.2
A47G G80A	-0.0419
G46C C149U	-2.58
A47C A150U	-0.247
G46U A91C C105U C114U U146G	≤ -4.2
A47C C57A G84A U101C	-0.765
U44C G88A U135A U139G	≤ -4.2
U44G G141A	-4.12
G48C C63A G83A G133C	-3.98
A47C C103G U135G	≤ -4.2
G48A C69G G84U	-2.41
A47U A52G A119C	-1.05
A49C A60G G67U C85U C93G A97G	≤ -4.2
G48C G59A C85U C129A	-4.08
G48A U55A	-1.14
A47U A89G C131A	≤ -4.2
A47U C85U A150C	≤ -4.2

Variant	polymerase ribozyme fitness (log ratio)
U44G G50A C57G C72G C114A G140C	≤ -4.2
U45A A49G G84U A115G A120G	≤ -4.2
A47C C51U U53A C54A G141U	-4.13
A47G G62U A142G U146G	-4.12
G46A C96U U134G A138G	≤ -4.2
U44A G67A U77G U78G C87A C95G	≤ -4.2
G46C A110G	≤ -4.2
G46U C69U C96A A110U A121C	≤ -4.2
A47C C63A G83A	-1.37
U44A U45A A49C C57U G70A G84U A91U C123G	≤ -4.2
U45G C85G C93U	≤ -4.2
U45A C93A G141A	-4.05
A47G U55A C116G	-0.139
G46U A98G	0.0194
G46U A60U G92C U139G	≤ -4.2
G48C C76A C93U G94A A138C G140A U146G	≤ -4.2
G48A G136C	-2.57
A49C C69U G84A C93U C96U C129G U148C	≤ -4.2
G46U C99U	-1.06
G48U U77C C79G G143U	≤ -4.2
A47U C95U	-0.679
U45G C93A C116U	-2.88
A47G A147U	0.466
U45A C79G G84C C93G U102G	≤ -4.2

Variant	polymerase ribozyme fitness (log ratio)
G46A U56A U82C C93A A107G C125U G136U	≤ -4.2
A47U U55A C87U	-2.17
U44A U55A C75A G84A C105U	≤ -4.2
A47G C85G U90C G124U	≤ -4.2
G46C U90A	≤ -4.2
G46C C76U U102C C116U A137C	≤ -4.2
G48A G62A G68C U78G C87A A91U A98U	≤ -4.2
A47C C69A A89G G124A	-3.28
A47U G81C C85G G86U C95U A106C G143A	≤ -4.2
G48C C85U	-1.95
A47C C57U C79A G94A U151G	≤ -4.2
G46C A52G A137G	-2.44
A47G A98G A115G C123G U130A	-3.77
A47G C57U U109G	-0.869
A47U U56A A122G U127C	-2.55
G46U C85A	-2.02
U45G G50A C87A C103U G124A	≤ -4.2
U44G G136A	-3.71
U45G C75G C87A A120C G141C	≤ -4.2
A47U C95U A115G	-2.68
U45C G46A U61G G62C C76A	≤ -4.2
A49C C54A U78C C85U	-3.91
A47G U90C G92C G128U A137C A147C	≤ -4.2
